{"source": "patent US20240343762A1", "about": "“USE OF PROTON PUMP MODULATOR IN PREPARING REAGENT” (SHANGHAI QUIETD BIOTECHNOLOGY CO. LTD., priority 2021, published 2024)", "key": {"[1]": {"tested_on": "APP/PS1 transgenic AD mice", "assay": "Morris water maze test in APP/PS1 transgenic AD mice", "assay_type": "in vivo, mouse", "details": "continuously for 1 week, mice of 10 months old", "protocol": "Morris water maze referred to the test solutions recorded in Qing-Feng Wu et al., Fibroblast growth factor 13 is a microtubule-stabilizing protein modulating neuronal polarization and migration. Cell. 149, 1549-1564 (2012). The test was carried out in a circular pool filled with water (120 cm in diameter, 30 cm in depth, titanium dioxide was added to make opaque, kept temperature at 21±1° C.) in a room with a fixed environment. The test was divided into an adaptation period (1 day), a training period (5-6 days) and a testing period (1 day). Adaptation period: the platform was placed 0.5 cm above the water surface, and the mice were guided to the platform. Training day: the platform was placed 0.5 cm underwater, and the mice were trained to find the platform. […] Training were performed 4 times a day, 4 times a day (between 8:00 a.m. to 4:00 p.m.), the mice were dropped from different water points each time, each training was performed at interval of at least 30 min, a total of 6 days, and the order of water points was different every day. Test Day: test was performed 24 h after the end of the training day. […] The footage was analyzed with Etho Vision XT 14 software, recording parameters including the escape latency of entering the target quadrant, the number of platform crossings, and the dwell time in the target quadrant. […]"}, "ATP6V1B2": {"target": "ATP6V1B2 (Mus musculus, UniProt P62814)", "sequence (P62814 whole entry)": "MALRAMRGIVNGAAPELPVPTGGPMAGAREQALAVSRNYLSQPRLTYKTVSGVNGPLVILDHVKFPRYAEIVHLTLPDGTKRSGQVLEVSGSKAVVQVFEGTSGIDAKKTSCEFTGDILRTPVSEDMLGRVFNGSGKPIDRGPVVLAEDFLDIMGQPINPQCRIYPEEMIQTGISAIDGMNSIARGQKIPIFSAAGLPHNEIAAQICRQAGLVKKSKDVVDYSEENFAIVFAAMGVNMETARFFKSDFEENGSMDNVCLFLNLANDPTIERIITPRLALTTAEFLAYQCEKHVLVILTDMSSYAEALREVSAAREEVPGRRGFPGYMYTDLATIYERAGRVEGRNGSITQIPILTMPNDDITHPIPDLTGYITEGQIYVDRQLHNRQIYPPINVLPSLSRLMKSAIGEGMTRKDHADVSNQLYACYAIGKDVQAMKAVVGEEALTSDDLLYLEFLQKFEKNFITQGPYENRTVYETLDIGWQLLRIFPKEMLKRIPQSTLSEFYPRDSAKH", "assay": "Co-immunoprecipitation in HEK 293 cells transfected with murine Atp6V1b2 expression plasmid with myc tag", "assay_type": "binding", "set-up": "expressed in transfected cells; host or cells: HEK 293", "details": "HEK 293 cell lysate, biotin antibody, immunoblotting", "protocol": "(6) A murine Atp6V1b2 expression plasmid with a myc tag at the 3′ end was constructed; the plasmid was transfected in HEK 293 cells; the cells were collected after 2 days; and cell protein was extracted. The biotin antibody and protein G agarose beads were added into a cell lysis solution for co-immunoprecipitation^[1], and the protein was eluted by the protein loading buffer solution.\n(7) SDS-PAGE protein electrophoresis gel was prepared, the concentration of lower-layer separation gel was 10%, and the concentration of upper-layer concentrated gel was 4%; the sample was added into a loading hole; and the protein was detected by an immunoblotting method, with the result shown in FIG. 6b."}, "[2]": {"target": "T1, murine ATP6V1B2 full-length protein (Mus musculus, UniProt P62814)", "T1 construct": "expressed in transfected cells; host or cells: 293 cells", "T1 sequence (P62814 whole entry, the tested form may be a part)": "as the sequence (P62814 whole entry) above", "assay": "Co-immunoprecipitation of EGFP-tagged QD202 with Myc-tagged ATP6V1B2 full-length protein in 293 cells", "assay_type": "binding", "text": "(§1) Expression plasmids including murine ATP6V1B2 full-length sequence, 1-286aa truncated sequence or 1-172aa truncated sequence with a Myc tag are respectively constructed; the amino acid sequence of the murine ATP6V1B2 full-length sequence was as set forth in SEQ ID NO. 8, the amino acid sequence of the murine ATP6V1B21-286aa was as set forth in SEQ ID NO. 10; the amino acid sequence of the murine ATP6V1B21-172aa as set forth in as SEQ ID NO. 11; and these plasmids were respectively called as an ATP6V1B2 full-length expression plasmid, an ATP6V1B21-286aa expression plasmid and an ATP6V1B21-172aa expression plasmid. Meanwhile, a QD202 expression plasmid with an EGFP tag was constructed. […]\n(§2) Then a Protein G agarose bead was added to be bound to the Myc antibody, so as to precipitate the ATP6V1B2 full-length protein, the 1-286aa truncated sequence or the 1-172aa truncated sequence, and proteins which were bound to one another, and finally the proteins subjected to co-immunoprecipitation was detected by virtue of an immunoblotting method."}, "[3]": {"target": "T2, murine ATP6V1B2 1-172aa truncated sequence (Mus musculus, UniProt P62814)", "T2 construct": "expressed in transfected cells; host or cells: 293 cells", "T2 sequence (P62814 1-172)": "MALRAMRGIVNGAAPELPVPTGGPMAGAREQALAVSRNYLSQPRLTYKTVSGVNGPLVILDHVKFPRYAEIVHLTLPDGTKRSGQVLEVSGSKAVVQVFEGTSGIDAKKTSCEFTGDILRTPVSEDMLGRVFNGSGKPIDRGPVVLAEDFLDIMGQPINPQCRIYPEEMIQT", "assay": "Co-immunoprecipitation of EGFP-tagged QD202 with Myc-tagged ATP6V1B2 1-172aa truncated sequence in 293 cells", "assay_type": "binding", "details": "Myc antibody, immunoblotting", "text": "as §1, §2"}}}
{"substance": "QD202: polypeptide synthesized according to the amino acid sequence as set forth in SEQ ID NO. 1 (YGRKKRRQRRRSPVDVVCS; QD202)", "values": [{"measurement": "learning and cognitive functions in water maze behavior", "setting": "[1]; intragastric, 6.25 mg/kg", "value": "obvious improvement of learning and cognitive functions"}, {"measurement": "learning and cognitive functions in water maze behavior", "setting": "[1]; intravenous, 1.25 mg/kg", "value": "obvious improvement on learning and cognitive functions"}, {"measurement": "binding to ATP6V1B2 protein by co-immunoprecipitation", "setting": "ATP6V1B2", "value": "specific binding between the QD202 and the ATP6V1B2 protein can be found"}, {"measurement": "binding to ATP6V1B2 full-length protein by co-immunoprecipitation", "setting": "[2]; 293 cells, Myc antibody, immunoblotting", "value": "only the full-length ATP6V1B2 protein can be combined"}, {"measurement": "binding site of ATP6V1B2 and QD202", "setting": "[2]; concluded from full-length versus truncated sequences", "value": "288th amino acid to 512th amino acid"}, {"measurement": "binding to ATP6V1B2 1-172aa truncated sequence by co-immunoprecipitation", "setting": "[3]", "value": "only the full-length ATP6V1B2 protein can be combined"}]}
